Measurements reported in publication PMC9369050.
Several values for one entry are separate records, joined by “and”; a condition that tells them apart may be missing. Identical values can stand only once.

Experiments:
[1] = molecular target: Calpain-2-cleaved Reg-1α (Reg-1αΔN1-4) (human); assay: SDS-PAGE with immunoblot, no cross-linker; bands of oligomers that persist in SDS-PAGE, detected with anti-Reg-1α (Figure 1C; time 0 of Figure 2A)
[2] = molecular target: Bacterial His-tagged Reg-1α (human regenerating islet-derived protein 1-alpha) (human) (UniProt P05451); assay: as above
[3] = molecular target: Bacterial His-tagged Reg-1α (human regenerating islet-derived protein 1-alpha) (human) (UniProt P05451); assay: cross-linking; 10 mM EDC/NHS, up to 30 min (0, 15, 30 min); Reg-1α with inactive calpain-2 at molar ratio 2/1, or Reg-1α alone; 50 mM Hepes pH 7.3, 100 mM NaCl, 1 mM DTT, 1 mM EGTA; SDS-PAGE 4-15% and immunodetection with anti-Reg-1α and anti-calpain-2

Substance	stoichiometry N [1]	stoichiometry N [2]	stoichiometry N [3]
Calpain-2-cleaved Reg-1α (Reg-1αΔN1-4) (domain or fragment)	2	–	–
Bacterial His-tagged Reg-1α (human regenerating islet-derived protein 1-alpha) (from UniProt P05451 23-166) (natural protein)	–	2 and 3	4
